Test results taken from publication PMC9282234.

Legend:
FUS-SNAP, P35637 [1] = target: T1, FUS-SNAP, P35637; test: nanoparticle tracking analysis; settings: remark: other sources report otherwise
T1 chain: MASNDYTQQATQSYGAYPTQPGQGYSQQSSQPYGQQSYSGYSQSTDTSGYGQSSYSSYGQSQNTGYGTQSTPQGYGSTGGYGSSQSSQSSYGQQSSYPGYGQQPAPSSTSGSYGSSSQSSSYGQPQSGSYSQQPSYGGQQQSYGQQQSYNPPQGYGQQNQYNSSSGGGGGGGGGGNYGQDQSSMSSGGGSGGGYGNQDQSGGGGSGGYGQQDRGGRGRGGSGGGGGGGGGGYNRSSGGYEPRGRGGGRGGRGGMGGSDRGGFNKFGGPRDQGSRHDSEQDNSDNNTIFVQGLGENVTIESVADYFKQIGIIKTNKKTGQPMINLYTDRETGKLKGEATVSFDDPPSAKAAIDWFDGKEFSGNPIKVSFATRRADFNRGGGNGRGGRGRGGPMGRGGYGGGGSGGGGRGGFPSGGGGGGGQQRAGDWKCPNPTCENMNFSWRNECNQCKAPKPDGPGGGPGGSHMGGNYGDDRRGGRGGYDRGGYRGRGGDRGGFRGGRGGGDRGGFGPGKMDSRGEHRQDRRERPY

FUS-SNAP, P35637 [2] = target: T1, FUS-SNAP, P35637; test: dynamic light scattering; settings: remark: other sources report otherwise

B1: FUS-SNAP, P35637 1-526 (natural protein)
chain: T1 chain
- percent of the protein molecules in mesoscale clusters (250 nM FUS-SNAP) (FUS-SNAP, P35637 [1]): 0.15%
- stoichiometry N (molecules per cluster) (FUS-SNAP, P35637 [2]): < 10
